Results as given in paper PMC3369482 (Biochemical Journal, 2012).
Positions count from the first letter of the chain named. Numbers in names are those of the source. Read-outs that look alike come from different tables or passages of the source.

T1: ADAMTS5-2 (ADAMTS-5 lacking the C-terminal TS-2 domain) (human, UniProt Q9UNA0 262-874)
T1 sequence (looked up): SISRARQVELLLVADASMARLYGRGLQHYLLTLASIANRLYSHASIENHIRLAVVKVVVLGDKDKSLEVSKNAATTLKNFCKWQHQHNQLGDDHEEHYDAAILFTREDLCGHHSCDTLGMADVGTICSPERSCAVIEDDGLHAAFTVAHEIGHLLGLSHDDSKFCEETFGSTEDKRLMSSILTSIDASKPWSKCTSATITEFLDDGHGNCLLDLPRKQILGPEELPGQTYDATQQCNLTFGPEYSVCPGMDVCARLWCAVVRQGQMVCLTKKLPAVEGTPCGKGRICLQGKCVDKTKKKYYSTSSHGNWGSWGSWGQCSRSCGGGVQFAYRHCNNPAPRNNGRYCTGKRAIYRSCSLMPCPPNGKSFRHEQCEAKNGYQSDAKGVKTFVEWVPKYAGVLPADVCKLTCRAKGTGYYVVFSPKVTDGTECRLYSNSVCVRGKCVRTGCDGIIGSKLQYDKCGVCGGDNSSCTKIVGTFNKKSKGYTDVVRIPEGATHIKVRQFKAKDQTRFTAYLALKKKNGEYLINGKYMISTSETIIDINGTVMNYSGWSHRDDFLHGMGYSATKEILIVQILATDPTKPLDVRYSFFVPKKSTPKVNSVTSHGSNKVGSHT

T2: MMP-2 (UniProt P08253 110-660)
T2 sequence (looked up): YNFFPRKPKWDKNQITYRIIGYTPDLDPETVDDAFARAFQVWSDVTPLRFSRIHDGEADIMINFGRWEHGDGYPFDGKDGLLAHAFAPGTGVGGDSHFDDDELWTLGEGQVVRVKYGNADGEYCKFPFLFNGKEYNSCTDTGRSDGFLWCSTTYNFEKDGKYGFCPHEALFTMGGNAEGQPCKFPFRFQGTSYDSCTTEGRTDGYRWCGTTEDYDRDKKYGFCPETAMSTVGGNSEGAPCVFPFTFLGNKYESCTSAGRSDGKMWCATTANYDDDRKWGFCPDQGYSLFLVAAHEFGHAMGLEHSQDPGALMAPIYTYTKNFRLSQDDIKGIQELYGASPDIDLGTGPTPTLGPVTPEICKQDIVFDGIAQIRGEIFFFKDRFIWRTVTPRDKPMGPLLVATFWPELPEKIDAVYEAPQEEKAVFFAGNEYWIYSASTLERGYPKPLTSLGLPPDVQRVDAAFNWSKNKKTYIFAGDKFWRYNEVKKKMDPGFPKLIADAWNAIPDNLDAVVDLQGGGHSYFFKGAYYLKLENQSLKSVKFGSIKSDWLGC

T3: Recombinant human ADAMTS-5 (adamalysin with thrombospondin motifs 5), full-length (human, UniProt Q9UNA0 262-930)
T3 sequence (looked up): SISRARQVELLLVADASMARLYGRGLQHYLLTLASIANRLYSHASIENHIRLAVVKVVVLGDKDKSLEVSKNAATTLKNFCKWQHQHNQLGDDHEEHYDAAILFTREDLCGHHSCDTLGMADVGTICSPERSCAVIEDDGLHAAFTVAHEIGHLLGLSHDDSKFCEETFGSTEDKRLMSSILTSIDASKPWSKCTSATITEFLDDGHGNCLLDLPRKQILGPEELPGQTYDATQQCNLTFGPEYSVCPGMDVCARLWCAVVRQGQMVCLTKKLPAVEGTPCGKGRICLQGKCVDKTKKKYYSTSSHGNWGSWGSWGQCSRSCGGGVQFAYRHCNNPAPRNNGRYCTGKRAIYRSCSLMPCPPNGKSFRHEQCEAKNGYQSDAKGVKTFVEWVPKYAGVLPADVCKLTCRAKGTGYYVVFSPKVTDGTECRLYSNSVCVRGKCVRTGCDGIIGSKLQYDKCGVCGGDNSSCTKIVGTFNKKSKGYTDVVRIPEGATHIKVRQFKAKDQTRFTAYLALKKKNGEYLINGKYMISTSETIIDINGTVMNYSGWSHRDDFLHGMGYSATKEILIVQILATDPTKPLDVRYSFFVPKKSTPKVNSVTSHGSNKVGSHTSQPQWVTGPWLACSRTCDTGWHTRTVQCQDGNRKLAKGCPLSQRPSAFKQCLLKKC

T4: MMP (matrix metalloproteinase)-1 catalytic domain (UniProt P03956 100-269)
T4 sequence (looked up): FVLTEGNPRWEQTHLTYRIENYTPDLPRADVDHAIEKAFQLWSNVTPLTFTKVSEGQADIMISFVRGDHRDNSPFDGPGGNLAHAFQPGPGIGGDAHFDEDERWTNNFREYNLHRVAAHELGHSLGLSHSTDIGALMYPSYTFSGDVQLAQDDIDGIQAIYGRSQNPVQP

B1: TIMP-3(K26/27/30/76E+R163/K165Q) (natural protein, human, UniProt P35625 24-211, looked up)
chain: CTCSPSHPQDAFCNSDIVIRAKVVGEELVEEGPFGTLVYTIKQMKMYRGFTKMPHVQYIHTEASESLCGLKLEVNEYQYLLTGRVYDGKMYTGLCNFVERWDQLTLSQRKGLNYRYHLGCNCKIKSCYYLPCFVTSKNECLWTDMLSNFGYPGYQSKHYACIQQQGGYCSWYRGWAPPDKSIINATDP
B2: Recombinant human TIMP-3 (tissue inhibitor of metalloproteinases 3) (natural protein, UniProt P35625 24-211, looked up)
chain: B1 chain with E26K, E27K, E30K, E76K, Q163R, Q165K
B3: TIMP-1 (tissue inhibitor of metalloproteinases 1) (natural protein)
chain: not shown

Columns and labels:
Assay in all cases: enzyme inhibition kinetics
[1] = target: T1, ADAMTS5-2 (ADAMTS-5 lacking the …)
MMP-2 = target: T2, MMP-2
MMP-3 catalytic domain = MMP-3 catalytic domain (UniProt P08254 100-272)
[2] = target: T3, Recombinant human ADAMTS-5 (adamalysin …)
[3] = target: T4, MMP (matrix metalloproteinase)-1 …
[4] = target: T3, Recombinant human ADAMTS-5 (adamalysin …); remark: listed apart in the source

Sequence of MMP-3 catalytic domain (P08254 100-272): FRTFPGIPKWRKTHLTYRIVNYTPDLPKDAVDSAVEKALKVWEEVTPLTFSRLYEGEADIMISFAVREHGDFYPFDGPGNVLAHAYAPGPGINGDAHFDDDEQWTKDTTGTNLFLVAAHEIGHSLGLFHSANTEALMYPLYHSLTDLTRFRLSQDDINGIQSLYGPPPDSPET

| Binder | Ki [1] [nM] | Ki (MMP-2) [nM] | Ki (MMP-3 catalytic domain) [nM] | Ki [2] [nM] | Ki [3] [nM] | Ki [4] [nM] |
| --- | --- | --- | --- | --- | --- | --- |
| B1 | 1.34 ± 0.04 |  |  |  |  |  |
| B2 |  | 0.16 ± 0.002 | 0.9 ± 0.28 | 0.56 ± 0.03 | 0.43 ± 0.12 |  |
| B3 |  |  |  | 734 ± 0.16 |  | 522 ± 0.24 |
